B1: library; numbered along this chain (parent)
chain: MRKPRAAVGSGHRKQAASQEGRQKHAKNNSQAKPSACDGLARQPEEVVLQASVSSYHLFRDVAEVTAFRGSLLSWYDQEKRDLPWRRRAEDEMDLDRRAYAVWVSEVMLQQTQVATVINYYTGWMQKWPTLQDLASASLEEVNQLWAGLGYYSRGRRLQEGARKVVEELGGHMPRTAETLQQLLPGVGRYTAGAIASIAFGQATGVVDGNVARVLCRVRAIGADPSSTLVSQQLWGLAQQLVDPARPGDFNQAAMELGATVCTPQRPLCSQCPVESLCRARQRVEQEQLLASGSLSGSPDVEECAPNTGQCHLCLPPSEPWDQTLGVVNFPRKASRKPPREESSATCVLEQPGALGAQILLVQRPNSGLLAGLWEFPSVTWEPSEQLQRKALLQELQRWAGPLPATHLRHLGEVVHTFSHIKLTYQVYGLALEGQTPVTTVPPGARWLTQEEFHTAAVSTAMKKVFRVYQGQQPGTCMGSKRSQVSSPCSRKKPRMGQQVLDNFFRSHISTDAHSLNSAAQ

Variants of: B1
Test: 8OG:A repair function score (normalized; synonymous = 0, nonsense = -1) (normalized log-likelihood score); higher = more repair activity (WT-like)
Conditions: with 8OG:A DNA repair reporter (GFP) in HEK-293 MUTYH KO cells
Experimental: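 Saturation mutagenesis (NNN codon scan) of the MUTYH cDNA (521-aa nuclear isoform NM_001048174.1 / NP_001041639), stably expressed under doxycycline induction in HEK-293 MUTYH knockout cells. Cells were co-transfected with an 8OG:A-bearing GFP repair reporter plus mCherry and sorted 72 h later into GFP+ and GFP− bins, three replicates per tile. The Rosace log2 enrichment (GFP+ vs GFP−) was converted per tile to a normalized function score with synonymous variants centered at 0 and nonsense variants (codons 1-471) at -1; low-abundance variants were removed.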

8OG:A repair function score of substitutions, site by site:
L134: C -0.394 | W -0.665 | T -0.714 | H -0.607 | M -0.216 | Y -0.464 | D -1.82 | Q -1.24 | I -0.101 | P -1.26 | E -0.848 | A -0.0633 | V 0.0486 | K -0.914 | G -0.824 | S -0.514 | F -0.116 | R -1.01 | N -0.686
W128: E -0.929 | L -0.0988 | G -0.819 | H -0.948 | Q -0.844 | F -0.156 | P -1.23 | C -0.476 | K -0.455 | T -0.721 | S -0.935 | N -0.681 | Y -0.0875 | I -0.397 | D -1.27 | A -0.875 | V -0.224 | M -0.374 | R -0.696
A135: I -0.611 | W -0.338 | C -0.244 | V -0.0536 | L -0.28 | M -0.467 | N -0.227 | D -0.636 | Y -0.211 | R -0.0784 | T -0.165 | S -0.0157 | H -0.353 | K -0.317 | G -0.074 | E -0.996 | F -0.316 | P -0.477 | Q -0.686
Q126: A 0.00568 | C -0.239 | K 0.0876 | E 0.0677 | H -0.0777 | V -0.0961 | P -0.376 | S 0.0362 | Y -0.055 | D 0.00176 | M 0.0168 | T 0.049 | N 0.0504 | F 0.0114 | G -0.0912 | L 0.0989 | W -0.256 | I -0.00505 | R 0.0261
T122: C -0.0157 | L -0.0652 | Q 0.0683 | M -0.388 | K -0.158 | P 0.0277 | A -0.000881 | R -0.0157 | F -0.0723 | V -0.0114 | N 0.119 | G -0.143 | E -0.0848 | H 0.0576 | W -0.16 | S -0.0596 | I 0.0511 | D 0.0468 | Y -0.13
I118: Y -0.223
K127: R 0.014 | A -0.303 | H 0.135 | F -0.207 | L -0.0156 | I -0.204 | P -0.884 | C 0.0938 | S -0.0418 | M -0.286 | E -0.0486 | N -0.0772 | T -0.072 | D -1.32 | V -0.306 | Q -0.208 | W -0.529 | G -0.408 | Y -0.398
L131: C -0.139 | I -0.158 | N -0.249 | G -0.424 | Y -0.228 | A -0.104 | S -0.315 | M 0.0751 | P -0.153 | H -0.283 | V -0.0573 | D -1.1 | W -1.21 | T -0.0104 | E -0.608 | R -0.798 | Q -0.814 | K -0.394 | F 0.00215
W124: M -1.62 | A -0.577 | R -1.05 | D -0.574 | F 0.00143 | Q -0.557 | E -1.01 | G -0.892 | T -0.869 | H -0.678 | S -0.825 | N -1.01 | I -0.714 | K -0.931 | P -0.593 | Y -0.973 | V -0.516 | L -0.378 | C -0.794
G123: M -0.101 | L 0.0662 | Y -0.191 | H -0.0466 | E -0.000943 | F -0.0297 | Q 0.213 | P 0.0736 | T 0.0116 | S 0.0793 | C 0.124 | N -0.0109 | W -0.322 | R 0.0952 | A 0.0469 | D -0.257 | I 0.0985 | K 0.00116 | V 0.0959
Y121: M -0.933 | T -1.25 | R -0.993 | D -0.798 | A -0.942 | C -1.17 | F -0.109 | N -3.31 | K -1.13 | L -0.993 | I -0.562 | W -0.427 | E -1.92 | Q -0.765 | H -0.853 | P -1.26 | S -0.866 | V -0.91 | G -1.09
Q132: C -0.154 | D 0.0351 | Y -0.125 | T 0.0372 | M -0.0607 | K -0.364 | G -0.076 | F -0.327 | N -0.0864 | A 0.059 | E -0.0366 | L -0.194 | H -0.0442 | P 0.0126 | R 0.00437 | V -0.0799 | S -0.109 | I -0.0124 | W -0.228
D133: W -0.988 | M 0.0651 | T -0.0145 | P -0.372 | E -0.0313 | S 0.0612 | K -0.175 | R -0.0865 | V -0.0608 | I -0.308 | L -0.0567 | A -0.000201 | Q -0.164 | G 0.0336 | H -0.0208 | N 0.0132 | C -0.201 | F -0.0791 | Y -0.727
N119: F -0.259 | H 0.126 | E -0.069 | T -0.0798 | I -0.263 | W -0.704 | C -0.0452 | V 0.0134 | L -0.112 | S -0.294 | R 0.0743 | K -0.0285 | Q -0.00304 | A 0.121 | G 0.0963 | Y -0.361 | M -0.216 | D -0.419 | P -0.0904
S136: K 0.0771 | F -0.278 | G 0.03 | A 0.0607 | C -0.0713 | H -0.136 | I -0.0848 | L -0.0288 | E 0.0125 | D 0.029
T130: H -0.115 | Y -0.392 | N -0.00511 | V -0.178 | P -0.9 | W -0.522 | A -0.214 | D 0.137 | M -0.278 | C -0.578 | E -0.171 | I -0.27 | G -0.0108 | F -0.197 | K -0.0846 | S 0.107 | Q -0.123 | R -0.049 | L -0.336
P129: V -0.608 | M -0.298 | K -0.414 | N -0.266 | H -0.193 | F -0.742 | T -0.491 | E -0.084 | I -0.53 | C -0.403 | D -0.0868 | S -0.231 | L -0.577 | G -0.263 | Q -0.0447 | Y -0.513 | R -0.477 | A -0.267 | W -0.109
Y120: M -0.0214 | F -0.0973 | P -0.134 | W -0.465 | V -0.224 | A -0.24 | I -0.425 | T 0.0371 | D -0.428 | S -0.126 | R -0.0662 | Q -0.154 | L -0.231 | H -0.238 | C -0.227 | G -0.347 | K 0.0493 | N -0.333 | E -0.482
M125: A -0.557 | N -0.838 | L -0.161 | P -1.2 | K -0.523 | I -0.0973 | V -0.308 | Q -0.33 | E -0.577 | F -0.273 | T -0.339 | R -0.877 | D -0.755 | Y -0.538 | S -0.734 | G -0.932 | C -0.306 | W -0.408 | H -0.401
